Experimental data: the supplement of paper PMC10567573
± gives the standard deviation.

Experiment: protein stability index of a GFP-peptide fusion (GPS, HEK-293T) (PSI 1-6); higher = more stable
[1] = treatment: DMSO, c terminus: a fixed tail appended
[2] = treatment: MLN4924 1 uM, 8 h, c terminus: a fixed tail appended
[3] = treatment: DMSO, c terminus: native
[4] = treatment: MLN4924 1 uM, 8 h, c terminus: native
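Note: 24-mer peptide tiles fused after GFP, lentivirally expressed, FACS-sorted into six equal bins by GFP/DsRed ratio, decoded by Illumina sequencing, PSI is the read-weighted mean bin number.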

Sequence | protein stability index [1] | protein stability index [2] | protein stability index [3] | protein stability index [4]
EKMTILQTYFRQNRDEVLDNLLAF [ATP6V1G1] | 2.7 ± 0.46 | 2.632 ± 0.015 |  | 
EKTGPQLTSRIKGDWIGLYRHFLK [DENND6A] | 2.15 ± 0.34 | 2.08 ± 0.21 |  | 
ELEGDVAEPLAGPACVTVILPSCV [KLHL14] | 3.32 ± 0.54 | 3.14 ± 0.14 |  | 
ELFRIGGKSPDTNYLFMGDYVDRG [PPP2CA] | 2.49 ± 0.39 | 2.48 ± 0.11 |  | 
ELFRLRGIKAQVALRLAELARRRR [NOP53] | 2.36 ± 0.23 | 2.55 ± 0.22 |  | 
ELFVREPTGRLPALVRWWNGIGAV [MYORG] | 2.26 ± 0.38 | 2.4 ± 0.41 |  | 
ELNHGRQGENQEHLVIAEMMELGS [FATE1] | 4.3 ± 0.29 | 4.27 ± 0.36 |  | 
ELQSQLSMKASLEGNLAETENRYC [KRT17] | 3.93 ± 0.25 | 4.18 ± 0.14 |  | 
ELSPPLSPASHVDVDLTIHGRHID [FOXJ1] | 4.82 ± 0.18 | 4.84 ± 0.064 |  | 
EMETLETSTKTDSEEGSWAQTLAY [PPFIA4] | 5.04 ± 0.15 | 4.62 ± 0.069 |  | 
ENELMISYLMFLQILVYFSFMSW [FAM98B] |  |  | 3.17 ± 0.67 | 3.26 ± 0.33
EPEKIYAMPDPTVPDSDIKALTTL [ESRRG] | 4.46 ± 0.15 | 4.6 ± 0.2 |  | 
EPNNIVVLLQTSPYHVDSLLQLSD [TCF25] | 2.44 ± 0.3 | 2.11 ± 0.26 |  | 
EPPHNLFCAPGSWEWNELDHIMEI [SERTAD3] | 2.93 ± 0.13 | 3.07 ± 0.25 |  | 
EPYPSQLLKPIPEYSPEEESEPPA [TRAF3IP2] | 5.45 ± 0.12 | 5.66 ± 0.18 |  | 
EQCIKLWLHALHLRQKGNRNTHKD [FEM1B] | 2.39 ± 0.21 | 2.59 ± 0.39 |  | 
EQIGHILVSWLPRLNAYRGYCSNQ [NET1] | 2.67 ± 0.51 | 2.65 ± 0.18 |  | 
ERAELAASLGLTQTQVKIWFQNKR [DLX1] | 3.59 ± 0.34 | 3.87 ± 0.44 |  | 
EREPVRGQCLDSTDQLEFTVEPRL [RTN2] | 4.78 ± 0.2 | 4.71 ± 0.2 |  | 
ERPLPNPEGLDSDFLAVLSDYPSP [SLA] | 4.26 ± 0.39 | 4.58 ± 0.41 |  | 
ERVWALAQEKAADVQARLNRSDHG [FCHSD1] | 4.23 ± 0.13 | 4.23 ± 0.24 |  | 
ESEDCKLPCNPCATTNASGNSCGP [KRT34] | 5.21 ± 0.12 | 5.25 ± 0.17 |  | 
ESKEPIEEEPTGAGLNKDKETEER [SDE2] | 5.57 ± 0.34 | 5.7 ± 0.13 |  | 

Sequence | protein stability index [1] | protein stability index [2] | protein stability index [3] | protein stability index [4]
ESLPRSEIDEKVTDLVQFLLFKYQ [MAGEA10] | 2.35 ± 0.069 | 2.83 ± 0.5 |  | 
EVDWEYFYGLLFTSENLKLVHIVC [DFFB] | 3.34 ± 0.39 | 2.56 ± 0.94 |  | 
EVKRAFFSKSKELHPDRDPGNPSL [DNAJC4] | 3.89 ± 0.12 | 4.03 ± 0.37 |  | 
EVLGPLCLMLLMGTVHCQIVSTQI [PHTF1] | 3.27 ± 0.15 | 3.19 ± 0.2 |  | 
EVRYYLRQIVSGLKYLHEQEILHR [PLK2] | 3.11 ± 1 | 2.91 ± 0.58 |  | 
EVSADDETPNPPQSAQIACSSPSV [MAGEA10] | 5.57 ± 0.28 | 5.42 ± 0.21 |  | 
EVTADDRKVKSTITLDGGVLVHVQ [FABP4] | 3.7 ± 0.37 | 3.99 ± 0.17 |  | 
EVTDTGDPIVRPLWWIAPGDETAH [MYORG] | 4.25 ± 0.28 | 4.38 ± 0.35 |  | 
EWETEVEMDKLRASDIMEPNLTYV [CLCN6] | 3.85 ± 0.32 | 4.08 ± 0.19 |  | 
EYLIRLFQEWEAHRNLSQLPNFAF [TCF25] | 2.32 ± 0.7 | 2.39 ± 0.24 |  | 
EYRQKHGVPPLKLCKNLNREAQQY [GLIPR2] | 3.42 ± 0.16 | 3.4 ± 0.28 |  | 
FAALRASLVAPLLLELAGEVTDTG [MYORG] | 2.13 ± 0.39 | 2.36 ± 0.4 |  | 
FAWSQGHRTVKLVPWSQCLQNFLL [WSB1] | 1.99 ± 0.83 | 2.3 ± 0.031 |  | 
FCLLSCGILTFLAVLGRYVPGLLL [RETREG3] | 2.36 ± 0.32 | 2.09 ± 0.23 |  | 
FCNISLFEDLPLQEPQSPQKLNPG [PLAGL1] | 3 ± 0.2 | 3.21 ± 0.25 |  | 
FDEKIVPILKRKLPGSDVSGRLMG [FBXO28] | 2.75 ± 0.48 | 3.48 ± 0.47 |  | 
FDLNNLDPELKNLFDMCGISEAQL [WASL] | 2.62 ± 0.55 | 2.83 ± 0.69 |  | 
FDRTEWVQIRRLEAAGESLEEEIR [ZC2HC1C] | 4.02 ± 0.08 | 4.55 ± 0.1 |  | 
FDVDHGICIMDAENITTVSVIKDH [WDR88] | 3.27 ± 0.2 | 3.25 ± 0.25 |  | 
FEDEVKRLGWQQQAELQELEERLQ [MTUS2] | 4.17 ± 0.4 | 4.28 ± 0.54 |  | 
FGKDFRKGLLKKGACYGDDACFVA [PPTC7] | 2.24 ± 0.31 | 2.53 ± 0.35 |  | 
FGVAVVITNQVVAQVDGAAMFAAD [RAD51] | 3.26 ± 0.59 | 2.96 ± 0.62 |  | 
FIEIELDRQELTYQELLRVCCCEL [ANKRD40] | 2.67 ± 0.61 | 2.67 ± 0.66 |  | 

Sequence | protein stability index [1] | protein stability index [2] | protein stability index [3] | protein stability index [4]
FKEQLQALIPYVLNPSKLMEKEIN [ATL3] | 1.91 ± 0.28 | 2.22 ± 0.24 |  | 
FKGNKYWAVQGQNVLHGYPKDIYS [MMP1] | 2.3 ± 0.21 | 2.46 ± 0.2 |  | 
FLTHFILMNDVIDTSGFPDLSDNR [FBXO33] | 2.41 ± 0.47 | 2.27 ± 0.43 |  | 
FLVLQSLLERQVEMTPEKFSVLME [FANCE] | 2.13 ± 0.39 | 2.11 ± 0.3 |  | 
FPAEERARVLDRRGCSRVEGGGTS [ANKRD9] | 4.42 ± 0.2 | 4.53 ± 0.28 |  | 
FPSLQVTAILIECGADVNVRDSDD [FEM1C] | 2.44 ± 0.18 | 2.37 ± 0.39 |  | 
FQHHAKPNCFRKDPDINMHPFFFA [FADS1] | 2.2 ± 0.43 | 2.29 ± 0.19 |  | 
FRKIKDHFCPFENQFHTEIQILA [C8orf76] |  |  | 2.69 ± 1 | 3.26 ± 0.27
FSAPDPPRPRPVSLSLRLPHQPVT [SMTNL2] | 3.77 ± 0.12 | 3.91 ± 0.27 |  | 
FSASERLSLKRELSWYRGRRPRTA [HESX1] | 2.7 ± 0.28 | 3.22 ± 0.32 |  | 
FSFRYQQELEEEIKELYENFCKHN [ATL3] | 2.57 ± 0.38 | 2.86 ± 0.44 |  | 
FSQKSCLVAHQRYHTGKTPFVCPE [ZNF649] | 2.58 ± 0.13 | 2.6 ± 0.23 |  | 
FSQYGRIITSRILVDQVTGVSRGV [ELAVL3] | 2.23 ± 0.26 | 2.33 ± 0.23 |  | 
FVEDQAVVETVFFLTSRTRALLRR [ZSWIM9] | 2.21 ± 0.25 | 2.22 ± 0.14 |  | 
FVFSTEERTQLRLESLEDTHIMKG [TRIB1] | 2.85 ± 0.63 | 3.36 ± 0.41 |  | 
FVGDLSPEITTEDIKAAFAPFGRI [TIA1] | 3.11 ± 1 | 2.7 ± 0.18 |  | 
FVVEYHGDLIEITDAKKREALYAQ [KMT5A] | 2.65 ± 0.34 | 2.73 ± 0.41 |  | 
FYRSTAPSEDIWKKFELVPSPPTS [MYCL] | 2.67 ± 0.15 | 2.76 ± 0.32 |  | 
FYSAYLVAEKVVVITKHNDDEQYA [HSP90AB1] | 2.18 ± 0.23 | 2.11 ± 0.43 |  | 
GAAEEARRLEQRWGFGLEELYGLA [ACBD3] | 2.77 ± 0.37 | 2.99 ± 0.12 |  | 
GAERLDALLADEERCLSCILAQQP [TRADD] | 3.59 ± 0.25 | 3.83 ± 0.28 |  | 
GAQVKELEEKCQQPASELLQDVRV [TRIM15] | 5.4 ± 0.36 | 5.43 ± 0.12 |  | 
GATPSYHWDLAELLPNQSHGNQSA [SLC22A15] | 4.06 ± 0.19 | 4.22 ± 0.33 |  | 

Sequence | protein stability index [1] | protein stability index [2] | protein stability index [3] | protein stability index [4]
GAYIGEGRVEVLKNGEWGTVCDDK [LOXL2] | 4.99 ± 0.36 |  |  | 
GCQLDLRYADLEAVNRARRPLARP [RHOBTB1] | 3.07 ± 0.12 | 3.16 ± 0.28 |  | 
GCSQFRLAVLDWNQRAMDLYKALG [SAT2] | 2.2 ± 0.39 | 2.02 ± 0.18 |  | 
GDDFELLDQSELSQLDPASSRSH [RETREG3] |  |  | 4.75 ± 0.29 | 4.85 ± 0.4
GEEAVTLVEDMQRELGRLRQQVTN [ZNF263] | 4.1 ± 0.14 | 4.02 ± 0.29 |  | 
GESFPAQVPSGEDQTALSLEECLR [NFE2L1] | 5.08 ± 0.89 | 5.15 ± 0.076 |  | 
GFEHYDLFFIDGSTPSDNIVRRFL [CDC14A] | 2.12 ± 0.24 | 2.16 ± 0.25 |  | 
GFSSIPDAFWWAVVTMTTVGYGDM [KCNA3] | 3.06 ± 0.47 | 3.25 ± 0.27 |  | 
GGAQASGTLIGVGQSVTAVGRIIA [MFSD9] | 3.38 ± 0.34 | 3.42 ± 0.2 |  | 
GGGGGGGGTSSNNSEEEEDDDDEE [ANKRD17] | 5.68 ± 0.21 | 5.55 ± 0.34 |  | 
GGGGVAAVVVLDQGSRHWQKLREE [DUSP5] | 2.96 ± 0.26 | 2.65 ± 0.3 |  | 
GGKNCKKPAEYGYVSLGRLGAAKG [CEBPB] | 3.64 ± 0.27 | 3.52 ± 0.54 |  | 
GIPGWGFSGWISALVVPKGNTAVS [SCAMP3] | 2.78 ± 0.72 | 2.41 ± 0.52 |  | 
GIVVWNMDVERQETPEWLDSDSCQ [WDFY2] | 3.3 ± 0.2 | 3.5 ± 0.32 |  | 
GKETLTPSELRDLVTQQLPHLMPS [S100A14] | 3.94 ± 0.65 | 3.99 ± 0.12 |  | 
GKGDDSETDKNNCSNAKAVETDV [KCNA4] |  |  | 5.13 ± 0.28 | 5.52 ± 0.38
GKQPVSLPARRLKLRGRKRRQRG [CPXM2] |  |  |  | 3.59 ± 0.25
GLANSSRVRGRVGTIRPVRCPSSS [C22orf15] | 4.12 ± 0.14 | 4.23 ± 0.21 |  | 
GLEDAGLDPHFVPTELWPQEAVPL [TEX19] | 4.44 ± 0.13 | 4.62 ± 0.12 |  | 
GLGCKDLDLIFHVALPTEAEFQLV [TENT5C] | 2.26 ± 0.21 | 2.28 ± 0.45 |  | 
